From patent US20080249043 come the findings set out here.

For series [1], the target named is His-tagged PLS3 (wild-type phospholipid scramblase 3) (UniProt Q9NRY6).
For series [2], the target named is His-tagged PLS3(T21A) (UniProt Q9NRY6).
For series [3], the target named is first 50-aa fragment of PLS3, His-tagged (UniProt Q9NRY6).

Sequence of His-tagged PLS3(T21A) (Q9NRY6 other isoform, or with tags, fused parts or gaps T21A): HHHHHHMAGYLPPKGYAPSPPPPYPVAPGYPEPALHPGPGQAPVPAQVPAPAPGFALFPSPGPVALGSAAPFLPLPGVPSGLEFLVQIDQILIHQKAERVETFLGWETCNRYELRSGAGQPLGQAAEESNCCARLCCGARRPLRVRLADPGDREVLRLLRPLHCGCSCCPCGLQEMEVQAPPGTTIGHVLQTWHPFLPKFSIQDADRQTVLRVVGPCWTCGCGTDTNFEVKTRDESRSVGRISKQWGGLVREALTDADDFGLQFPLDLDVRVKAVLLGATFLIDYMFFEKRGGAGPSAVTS

For the substance “Recombinant human PKC-δ enzyme (Calbiochem)”, the “in vitro phosphorylation with [γ-32P]ATP, autoradiography” value is “Phosphorylation was seen in both full-length PLS3 and its N-terminal fragment of PLS3” in series [1]; “mutation at Thr21 nearly eliminated PLS3 phosphorylation by PKC-δ” in series [2]; “Phosphorylation was seen in both full-length PLS3 and its N-terminal fragment of PLS3” in series [3].
